Target: T1, His6-αX I-domain (UniProt P20702 146-332)
T1 sequence (looked up): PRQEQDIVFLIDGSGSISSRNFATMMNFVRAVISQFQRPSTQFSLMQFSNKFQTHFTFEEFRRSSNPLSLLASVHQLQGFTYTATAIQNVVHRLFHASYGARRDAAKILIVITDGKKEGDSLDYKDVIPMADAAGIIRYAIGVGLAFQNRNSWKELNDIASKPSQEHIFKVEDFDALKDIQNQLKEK
Test: ELISA

binding result: binds
B1: GST-αNTN (domain or fragment, human, UniProt P01024 750-775, looked up)
chain: NLDEDIIAEENIVSRSEFPESWLWNV
